Experiment [1] addresses T1, 重组人β2-微球蛋白 (recombinant human β2-microglobulin, expressed in E. coli) (human, UniProt P61769 21-119).
T1 construct: The same in-house recombinant protein serves as immunogen, ELISA coat and Western blot sample; also called β2-MG; 人β2-MG
The experiment in a line: indirect ELISA, hybridoma supernatant on coated recombinant human β2-MG (1 μg/mL), HRP goat anti-mouse IgG.

Experiment [2] addresses T1, 重组人β2-微球蛋白 (recombinant human …). As to the kind of experiment: Western blot, HRP-labelled scFv on recombinant β2-MG.

T1 sequence (P61769 21-119 limits assumed): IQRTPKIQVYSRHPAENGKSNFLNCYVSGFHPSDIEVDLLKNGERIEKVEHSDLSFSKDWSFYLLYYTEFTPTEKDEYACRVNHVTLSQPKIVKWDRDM

B1: 杂交瘤细胞株B17所表达抗体 (antibody expressed by hybridoma cell line B17) (antibody, V domains shown)
VH: not shown
VL: QIVLTQSPAIMSASPGEKVTITCSASSSVSYMHWFQQKPGTSPKLWIYSTSNLASGVPARFSGSGSGTSYSLTISRMEAEDAATYYCHQRSSYPLTFGAGTKLEIK
notes: Mouse monoclonal antibody tested as hybridoma culture supernatant and detected with HRP goat anti-mouse IgG
Take B1: the binding result in experiment [1] is on record as “binds”.

B2: 单链抗体BM17 (anti-human β2-microglobulin scFv BM17) (scFv)
scFv: QVTLKESGPGILQPSQTLSLTCSFSGFSLSTSGMGVSWIRQPSGKGLEWLAHIYWDDDKRYNPSLKSRLTISKDTSSNQVFLKITSVDTADTATYYCARVYYGYDGGFFDYWGQGTTLTVSSGGGGSGGGGSGGGGSQIVLTQSPAIMSASPGEKVTITCSASSSVSYMHWFQQKPGTSPKLWIYSTSNLASGVPARFSGSGSGTSYSLTISRMEAEDAATYYCHQRSSYPLTFGAGTKLEIK
notes: expressed in Pichia pastoris X-33; HRP-labelled in the Western blot; used as gold-labelled or coating antibody in the colloidal gold card; also called BM17-HRP; BM17-scFv
B2: the binding result in experiment [2] is recorded as “binds”.

B3: 单链抗体BM12 (anti-human β2-microglobulin scFv BM12) (scFv)
scFv: DVKLVESGGGLVKPGGSLKLSCAASGFTFGSYTMSWVRQTPEKRLEWVAAISSGGSFTYYLDSVKGRFTISRDSAKTTLYLQMGSLKSEDTAMYYCSREGGPYYGSHYYALDYWGQGTSVTVSSGGGGSGGGGSGGGGSDIQMTQSTSSLSASLGDGVTISCRASQDITNYLNWYQQRPDGAVRLLIYYTSRLHSGVPSRFSGSGSGTNYSLTISNLEQEDIATYFCQQGNTLPPTFGGGTKLEIK
notes: expressed in Pichia pastoris X-33; HRP-labelled in the Western blot; used as coating or gold-labelled antibody in the colloidal gold card; also called BM12-HRP; BM12-scFv
In the case of B3, in experiment [2], the binding result is on record as “binds”.

B4: 杂交瘤细胞株B12所表达抗体 (antibody expressed by hybridoma cell line B12) (antibody, V domains shown)
VH: DVKLVESGGGLVKPGGSLKLSCAASGFTFGSYTMSWVRQTPEKRLEWVAAISSGGSFTYYLDSVKGRFTISRDSAKTTLYLQMGSLKSEDTAMYYCSREGGPYYGSHYYALDYWGQGTSVTVSS
VL: DIQMTQSTSSLSASLGDGVTISCRASQDITNYLNWYQQRPDGAVRLLIYYTSRLHSGVPSRFSGSGSGTNYSLTISNLEQEDIATYFCQQGNTLPPTFGGGTKLEIK
notes: as for B1
With B4, the binding result in experiment [1] was “binds”.

For the origin of these results see CN109666072A (ZONHON BIOPHARMA INST INC, dated 2019).
